Test results: patent US20180335435A1 (METAFORA BIOSYSTEMS, published 2018)

Molecular target: T1, human CAT1 (cationic amino acid transporter-1, SLC7A1) (human, UniProt P30825 1-629)
T1 construct: Endogenous on HEK293T cells or expressed from a human CAT1 vector in QT6, HEK293T or CHO cells; also called CAT1/SLC7A1; Hu-CAT1
Assay: flow cytometry on HEK293T cells transfected with siRNA to CAT1 (n=3)

T1 sequence (P30825 whole entry): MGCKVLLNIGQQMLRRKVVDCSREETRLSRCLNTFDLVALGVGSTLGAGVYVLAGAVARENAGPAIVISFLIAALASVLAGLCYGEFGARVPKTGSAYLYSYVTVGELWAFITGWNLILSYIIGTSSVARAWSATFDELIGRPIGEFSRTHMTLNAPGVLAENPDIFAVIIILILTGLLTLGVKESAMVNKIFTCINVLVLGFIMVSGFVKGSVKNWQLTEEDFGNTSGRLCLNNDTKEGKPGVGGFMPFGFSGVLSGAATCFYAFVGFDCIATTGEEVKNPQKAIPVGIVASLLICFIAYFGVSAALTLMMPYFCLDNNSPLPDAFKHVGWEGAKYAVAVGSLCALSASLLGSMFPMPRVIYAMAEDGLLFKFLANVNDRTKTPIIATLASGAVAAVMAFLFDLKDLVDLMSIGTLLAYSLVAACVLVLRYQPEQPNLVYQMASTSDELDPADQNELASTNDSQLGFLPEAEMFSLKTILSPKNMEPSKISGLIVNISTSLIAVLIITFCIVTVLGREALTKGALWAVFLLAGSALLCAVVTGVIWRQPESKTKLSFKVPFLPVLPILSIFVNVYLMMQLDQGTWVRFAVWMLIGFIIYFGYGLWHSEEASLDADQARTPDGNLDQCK

B1: BLV.RBD-mFc ligand (receptor-binding domain of the bovine leukemia virus envelope glycoprotein tagged in frame with the constant fragment of mouse … (Fc fusion)
chain: WRCSLSLGNQQWMTTYNQEAKFFISIDQILEAHNQSPFCPRSPRYTLDFVNGYPKIYWPPPQGRRRFGARAMVTYDCEPRCPYVGADHFDCPHWDNASQADQGSFYVNHQTLFLHLKQCHGIFTLTWEIWGYDPLITFSLHKIPAPPQGSVDVPRDCGCKPCICTVPEVSSVFIFPPKPKDVLTITLTPKVTCVVVDISKDDPEVQFSWFVDDVEVHTAQTQPREEQFNSTFRSVSELPIMHQDWLNGKEFKCRVNSAAFPAPIEKTISKTKGRPKAPQVYTIPPPKEQMAKDKVSLTCMITDFFPEDITVEWQWNGQPAENYKNTQPIMDTDGSYFVYSKLNVQKSNWEAGNTFTCSVLHEGLHNHHTEKSLSHSPGK
notes: Used as a 1/10 dilution, detected with anti-mouse IgG1-Alexa Fluor 488; also called BLV.RBD ligand; BLV.RBD tagged with mouse Fc (mFc)
  fold decrease of binding after siRNA against CAT1 mRNA: 3.5 fold
